{"source": "the nanobody polyreactivity screen of Harvey et al. (2022)", "data": [{"test": "yeast display, Sf9 membrane polyspecificity reagent, FACS + sequencing; frameworks hold sequencing errors", "procedure,_shortened": "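Galactose induction of a Saccharomyces cerevisiae BJ5465 synthetic nanobody display library ran 36–48 hours. The cells were then stained for 1 hour at 4 °C with 10% biotinylated, detergent-solubilized Sf9 membrane reagent, pulled down on streptavidin microbeads and FACS-sorted into low and high (top ~1%) gates on expression and reagent-binding fluorescence. Labels for polyreactivity follow the gate of origin.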", "values": [{"sequence": "QVQLVESGGGLVQAGGSLRLSCAASGRIFKIYAMGWYRQAPGKERELVASISWSGGRTYYADSVKGRFTISRDNAKNTVYLQMNSLKPEDTAVYYCAATFSYSSYIYDYWGQGTQVTVSS", "polyreactivity (PSR sort gate)": "high polyreactivity"}, {"sequence": "QVQLVESGGGLVQAGGSLRLSCAASGRIFKIYAMGWYRQAQGKERELVAAISRGVRTYYADSVKGRFTISRDNAKNTVYLQMNSLKPEDTAVYYCAADLLISPEFYYWGQGTQVTVSS", "polyreactivity (PSR sort gate)": "high polyreactivity"}, {"sequence": "QVQLVESGGGLVQAGGSLRLSCAASGRIFKKNAMGWYRQAPGKERELVADINWTGGSTYYADSVKGRFTISRDYAKNTVDLQMNSLKPEDTAVYYCAVGVYPSYRGTTFSTRRDYWGQGTQVTVSS", "polyreactivity (PSR sort gate)": "low polyreactivity"}, {"sequence": "QVQLVESGGGLVQAGGSLRLSCAASGRIFKLYAMGWYRQAPGKERELVAAITRRGGSTSYADSVKGRFTISRDNAKNTVYLQMNSLKPEDTAVYYCNARSSETWHGDYWGQGTQVTVSS", "polyreactivity (PSR sort gate)": "high polyreactivity"}, {"sequence": "QVQLVESGGGLVQAGGSLRLSCAASGRIFKNNAMGWYRQAPGKEREFVAAISSIGGRTYYADSVKGRFTISRDNAKHTVYLQMNSLKPEDTAVYYCAARGYTGGLWYDYWGQRTQVTVSS", "polyreactivity (PSR sort gate)": "high polyreactivity"}, {"sequence": "QVQLVESGGGLVQAGGSLRLSCAASGRIFKPNAMGWYRQAPGKERELVASITSRGTSTYYADSVKGRFTISRDNAKNTVYLQMNSLKPEDTAVYYCAARPIHYPPYYYWGQGTQVTVSS", "polyreactivity (PSR sort gate)": "high polyreactivity"}, {"sequence": "QVQLVESGGGLVQAGGSLRLSCAASGRIFKPYAMGWYRQAPGKERELVASISRRGGSTYYADSVKGRFTISRDNAKNTVYLQMNSLKPEDTAVYYCNASGTYISLGYDYWGQGTQVTVSS", "polyreactivity (PSR sort gate)": "high polyreactivity"}, {"sequence": "QVQLVESGGGLVQAGGSLRLSCAASGRIFKRNAMGWYRQAPGKDTELVAGISSSGGSTYYADSVKGRFTISRDNAKNTVYLQMNSLKPEDTAVYYCAAVGYGLRPSYDYWGQGTQVTVSS", "polyreactivity (PSR sort gate)": "high polyreactivity"}, {"sequence": "QVQLVESGGGLVQAGGSLRLSCAASGRIFKRNAMGWYRQAPGKERELVAAISSRVGRTYYADSVKGRFTISRDNAKNTVYLQMNSLKPEDTAVYYCAADTYTYYDYDYWGQGTQVTVSS", "polyreactivity (PSR sort gate)": "high polyreactivity"}, {"sequence": "QVQLVESGGGLVQAGGSLRLSCAASGRIFKRYDMGWYRQAPGKERELVAAINRSGGSTYYADSVKGRFTISRDNAKNTVYLQMNSLKPEDTAVYYCAARYRYDGRYDYWGQGTQVTVSS", "polyreactivity (PSR sort gate)": "high polyreactivity"}, {"sequence": "QVQLVESGGGLVQAGGSLRLSCAASGRIFKRYTMGWYRQAPGKERELVAGITFSGGSTYYADSVKGRFTISRDNAKNTVYLQMNSLKPEDTAVYDCNARVPPQGWGPWKAFDYWGQGTQVTVSS", "polyreactivity (PSR sort gate)": "low polyreactivity"}, {"sequence": "QVQLVESGGGLVQAGGSLRLSCAASGRIFKSYVMGWYRQAPGKERELVAAISITGGSTYYADSVKGRFTISRDNAKNTVYLQMNSLKPEDTAVYYCAAEWFGSVQPAYDYWGQGTQVTVSS", "polyreactivity (PSR sort gate)": "high polyreactivity"}, {"sequence": "QVQLVESGGGLVQAGGSLRLSCAASGRIFKTNAMGWDRQGPGKERELVAGITGRSGSSYYADSVKGRFTISRDIAMNTVYLQMNSLKPEDTAVYYCAAPLYGRYSYGYWGQGNQVTVSS", "polyreactivity (PSR sort gate)": "high polyreactivity"}, {"sequence": "QVQLVESGGGLVQAGGSLRLSCAASGRIFKVNAMGWYRQAPGKERELVAAITRGGRTYADSVKGRFTISRDNAKNTVYLQMNSLKPEDTAVYYCAADVLEGWFKRYYYWGQGTQVTVSS", "polyreactivity (PSR sort gate)": "high polyreactivity"}, {"sequence": "QVQLVESGGGLVQAGGSLRLSCAASGRIFKVYAMGWYRQAPGKERELVAAITSRGGSTYYADSVKGRFTISRDNAKNTVYLQMNSLKPEDTAVYYCAAARGLPSNKYYYWGQGTQVTVSS", "polyreactivity (PSR sort gate)": "high polyreactivity"}, {"sequence": "QVQLVESGGGLVQAGGSLRLSCAASGRIFKVYAMGWYRQAPGKERELVATISRGGSTYYADSVKGRFTISRDNAKNTVYLQMNSLKPEDTAVYYCAKQRERYYWFGAWSYDYWGQGTQLTVSS", "polyreactivity (PSR sort gate)": "low polyreactivity"}]}]}
